Tested on: p16

In the case of CDK2, the “RB phosphorylation by CDK2-cyclin D2 complexes” value is reported as “No inhibition was observed when CDK2-cyclin D2 complexes were used in a similar assay”.

— US20030100489
